# Reference: patent publication US20110020361A1
# Molecular target: cell surface-associated mesothelin (UniProt Q13421)
# Assay: flow cytometry titration of IgG1 m912 on H9 cells, medium fluorescent units
substance,measurement,value
IgG1 m912 (antibody),50% binding,5 to 10 nM
